Source: paper PMC5676040, “The NOX Family of Proteins Is Also Present in Bacteria” (mBio, 2017)

Experiments:
[1] = system: Cc1cc2nc3c(=O)[nH]c(=O)nc-3n(C[C@H](O)[C@H](O)[C@H](O)COP(=O)(O)OP(=O)(O)OC[C@H]3O[C@@H](n4cnc5c(N)ncnc54)[C@H](O)[C@@H]3O)c2cc1C; assay: purified protein; format: biochemical, Streptococcus pneumoniae; settings: 200 µM NADPH; cytochrome c 100 µM; Figure 3E; varied: cofactor
[2] = system: NC(=O)C1=CN([C@@H]2O[C@H](COP(=O)(O)OP(=O)(O)OC[C@H]3O[C@@H](n4cnc5c(N)ncnc54)[C@H](OP(=O)(O)O)[C@@H]3O)[C@@H](O)[C@H]2O)C=CC1; assay: purified protein; format: biochemical, Streptococcus pneumoniae; settings: 10 µM FAD; cytochrome c 100 µM; Figure 3D
[3] = target: T1, SpNOX (Streptococcus pneumoniae, UniProt Q8CZ28); assay: cytochrome c reduction, absorbance at […] nm; format: biochemical; settings: read-out: 50% inhibitory concentration
T1 construct: gene spr0531; full-length membrane protein, codon-optimized synthetic gene, N-terminal His tag (pQLink N), E. coli BL21(DE3) pLysS, purified in MNG detergent; bis-His heme ligands H69, H83, H129, H142
T1 sequence (Q8CZ28 1-400): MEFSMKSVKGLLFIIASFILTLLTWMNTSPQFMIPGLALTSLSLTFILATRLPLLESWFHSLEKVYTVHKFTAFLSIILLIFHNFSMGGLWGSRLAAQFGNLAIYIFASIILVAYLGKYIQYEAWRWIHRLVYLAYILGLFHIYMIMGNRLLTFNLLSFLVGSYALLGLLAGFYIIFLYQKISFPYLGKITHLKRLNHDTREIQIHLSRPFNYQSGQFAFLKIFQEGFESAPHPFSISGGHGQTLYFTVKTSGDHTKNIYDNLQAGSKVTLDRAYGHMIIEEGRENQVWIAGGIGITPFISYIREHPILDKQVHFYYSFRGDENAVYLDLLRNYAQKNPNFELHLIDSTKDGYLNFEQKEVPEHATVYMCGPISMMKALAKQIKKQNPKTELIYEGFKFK

Molecule	Km [1] [µM]	Km [2] [µM]	IC50 [3] [µM]
SpNOX (Streptococcus pneumoniae R6)	0.13	8	–
c1ccc2c(c1)[I+]c1ccccc1-2 [DPI]	–	–	~5
